Assay results published in patent publication US20190077883A1.

Biological target: GST-tagged human FcRn (human; Schistosoma japonicum) (UniProt P55899)
Experiment: ELISA pH 6.0, h9C12 variant captured on AdV5 hexon, GST-hFcRn detected with anti-GST-HRP

Chain of GST-tagged human FcRn (human; Schistosoma japonicum) (P55899 24-297, chain 1 of 2): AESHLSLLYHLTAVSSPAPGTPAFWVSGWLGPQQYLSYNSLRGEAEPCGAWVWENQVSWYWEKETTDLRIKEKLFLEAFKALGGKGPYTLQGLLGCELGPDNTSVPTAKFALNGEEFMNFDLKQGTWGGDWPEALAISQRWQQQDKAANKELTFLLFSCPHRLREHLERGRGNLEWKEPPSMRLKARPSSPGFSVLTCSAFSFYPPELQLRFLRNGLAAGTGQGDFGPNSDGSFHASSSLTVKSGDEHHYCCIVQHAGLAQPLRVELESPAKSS
Chain of GST-tagged human FcRn (human; Schistosoma japonicum) (P61769 21-119, chain 2 of 2, further chain): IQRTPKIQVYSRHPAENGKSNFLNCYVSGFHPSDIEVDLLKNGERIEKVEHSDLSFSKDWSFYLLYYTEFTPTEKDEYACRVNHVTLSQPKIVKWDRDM

B1: h9C12 IgG3(b)-Q311R/N434W/M428E/R435H (antibody, part only; not given: variable domains, not shown: another chain or arm of the molecule)
constant: ASTKGPSVFPLAPCSRSTSGGTAALGCLVKDYFPEPVTVSWNSGALTSGVHTFPAVLQSSGLYSLSSVVTVPSSSLGTQTYTCNVNHKPSNTKVDKRVELKTPLGDTTHTCPRCPEPKSCDTPPPCPRCPEPKSCDTPPPCPRCPEPKSCDTPPPCPRCPAPELLGGPSVFLFPPKPKDTLMISRTPEVTCVVVDVSHEDPEVQFKWYVDGVEVHNAKTKPREEQYNSTFRVVSVLTVLHRDWLNGKEYKCKVSNKALPAPIEKTISKTKGQPREPQVYTLPPSREEMTKNQVSLTCLVKGFYPSDIAVEWESSGQPENNYNTTPPMLDSDGSFFLYSKLTVDKSRWQQGNIFSCSVEHEALHWHFTQKSLSLSPGK
Fold change from WT (ELISA) pH 6.0: 3 fold
